Key:
NCP147 [1] = assay: Fluorescence polarization binding to NCP147
NCP147 [2] = assay: FRET, LexA titration into Cy3-Cy5 labeled NCP147; type: binding; conditions: addition of MORC4 ATPaseCW
Protocol: (§1) Histone octamers unlabeled or labeled with Cy5 at H2AK119 were prepared as previously described. NCPs were reconstituted by combining octamer with 1.25× excess DNA and performing slow salt dialysis. Free DNA was then separated from fully reconstituted NCPs by sucrose gradient purification. NCPs for fluorescence polarization assays were reconstituted from unlabeled octamer and 207 bp DNA containing the 601 Widom sequence flanked with a 30 bp linker on either side and internally labeled with Fluorescein 27 bp in from the 5′ end. Cy3-Cy5 labeled NCPs for FRET assays were reconstituted with Cy5 labeled octamer plus either 147 bp 601 Widom DNA containing a LexA transcription factor binding site at bases 8–27[34], or 252 bp DNA containing the 601 Widom sequence with a 75 bp linker at the 3′ end, a 30 bp linker at the 5’ end, and a Gal4 transcription factor binding site at bases 8–26 in the 601 Widom sequence. The 147 bp LexA-binding DNA was labeled with Cy3 on the 5′ end, and the 252 bp Gal4-binding DNA was internally labeled with Cy3 34 bp in from the 5′ end.
LexA was expressed in E. coli, separated from genomic DNA and the proteome by polyethyleneimine precipitation, and salted out with ammonium sulfate. LexA was resuspended in buffer A (20 mM potassium phosphate pH 7, 0.1 mM EDTA, 10% glycerol, 1 mM DTT) + 200 mM NaCl and purified by a linear gradient to A + 800 mM NaCl over either a cellulose phosphate or HiTrap Heparin HP column. […]
(§2) Cy3-Cy5 NCP FRET efficiency measurements were carried out on a Horiba Scientific Fluoromax 4. […] LexA titrations were carried out in 20 mM Tris pH 7.5, 75 mM NaCl, 10% glycerol, 0.00625% Tween 20 buffer with 5 nM 147 bp Cy3-Cy5 NCPs mixed in 20 µL reaction volumes and allowed to incubate for 5 mins at 4 °C before FRET of the sample was measured. […] Gal4 (1–147) titrations were carried out in 10 mM Tris pH 8, 130 mM NaCl, 10% glycerol, 0.0075% Tween 20 buffer with 1 nM 252 bp Cy3-Cy5 nucleosomes mixed in 60 µL reaction volumes and allowed to incubate for 10 mins at room temperature before FRET of the sample was measured. […]

O’RangeRuler 5 bp ladder = assay: EMSA with DNA ladder (minimum DNA length); type: binding; conditions: 5 bp ladder 50 ng, pH 7.5, 150 mM NaCl
Protocol: EMSA experiments were performed essentially as described. In brief, increasing amounts of WT or mutant CW or ATPaseCW cassette of MORC4 were incubated with 147 bp 601 DNA (5 pmol) or 50 ng of O’RangeRuler 5 bp ladder (Thermo Scientific) in a DNA-binding buffer containing 20 mM Tris-HCl (pH 7.5), 150 mM NaCl, 2.5 mM MgCl2, and 2 mM DTT for 0.5 h on ice. The reaction mixtures were loaded on 5% native polyacrylamide gels, and electrophoresis was performed in 0.2× Tris-borate-EDTA (TBE) buffer at 100 V for 1.2 h on ice. Gels were stained with SYBR Gold (Invitrogen).

NCP252 = assay: FRET, Gal4 titration into Cy3-Cy5 labeled NCP252; type: binding
Protocol: Histone octamers unlabeled or labeled with Cy5 at H2AK119 were prepared as previously described. NCPs were reconstituted by combining octamer with 1.25× excess DNA and performing slow salt dialysis. Free DNA was then separated from fully reconstituted NCPs by sucrose gradient purification. NCPs for fluorescence polarization assays were reconstituted from unlabeled octamer and 207 bp DNA containing the 601 Widom sequence flanked with a 30 bp linker on either side and internally labeled with Fluorescein 27 bp in from the 5′ end. […]
as §2

NCP207 = assay: Fluorescence polarization binding to NCP207
Protocol: Fluorescence polarization measurements were acquired with a Tecan infinite M1000Pro plate reader by exciting at 470 nm and measuring polarized emission at 519 nm with 5 nm excitation and emission bandwidths. The fluorescence polarization was calculated from the emission polarized parallel and perpendicular to the polarized excitation light. Fluorescence polarization measurements were carried out using increasing concentrations of MORC4 ATPaseCW, ATPase alone, or CW alone with 5 nM 207 bp Fluorescein-labeled NCPs in 15 mM Tris pH 7.5, 75 mM NaCl, 0.00625% Tween 20, and 5 mM dithiothreitol buffer in 30 µL reaction volumes. The samples were loaded into a Corning round bottom black polystyrene plate and incubated at room temperature for 10 min before fluorescence polarization measurements of the samples were taken. The data were then fit to a non-cooperative binding isotherm to determine S1/2 values. Errors represent a S.D. between the S1/2 values based on three runs.
as §1

decrease in binding to NCP147 compared to NCP207 (NCP147 [1]; NCP147 vs NCP207 (peer review file)): 2 fold
S1/2 (NCP147 [1]; fluorescence polarization, pH 7.5, 75 mM NaCl, room temperature, 10 min, mean of n = 3): 0.4 µM
effect on binding of LexA to NCP147 (NCP147 [2]): decrease in binding of LexA to NCP147
tighter binding to NCP147 or NCP207 than the ATPase domain only (NCP207; ATPaseCW vs ATPase domain, either NCP147 or NCP207): 2.5–6 fold
increase in interaction with NCP207 relative to NCP147 (NCP207; NCP207 vs NCP147): ~ 2 fold
S1/2 (NCP207; fluorescence polarization, 5 nM NCP207, pH 7.5, 75 mM NaCl, room temperature, 10 min, mean ± S.D. of n = 3): 0.20 ± 0.07 µM
B1: ATPaseCW: ATPaseCW cassette (aa 29–486) of human MORC4 (Q8TE76) (protein)
chain: GIRLSTMSPRYLQSNSSSHTRPFSAIAELLDNAVDPDVSARTVFIDVEEVKNKSCLTFTDDGCGMTPHKLHRMLSFGFTDKVIKKSQCPIGVFGNGFKSGSMRLGKDALVFTKNGGTLTVGLLSQTYLECVQAQAVIVPIVPFNQQNKKMIITEDSLPSLEAILNYSIFNRENDLLAQFDAIPGKKGTRVLIWNIRRNKNGKSELDFDTDQYDILVSDFDTEEKMTGGVTSELPETEYSLRAFCGILYMKPRMKIFLRQKKVTTQMIAKSLANVEYDTYKPTFTNKQVRITFGFSCKNSNQFGIMMYHNNRLIKSFEKVGCQVKPTRGEGVGVIGVIECNFLKPAYNKQDFEYTKEYRLTINALAQKLNAYWKEKTSQDNFETSTVARPIPKVPDQTWVQCDECLKWRKLPGKIDPSMLPARWFCYYNSHPKYRRCSVPEEQELTDEDLCLSKAKKQE
modifications: left off: GST, end not stated, cleaved
minimum DNA length for appreciable interaction (O’RangeRuler 5 bp ladder): ≥ 30 bp
effect on nucleosome unwrapping-wrapping equilibrium (NCP252): shifts the unwrapping-wrapping equilibrium toward the wrapped state

Source: PMC7596504, “Molecular mechanism of the MORC4 ATPase activation” (Nature Communications, 2020)
